The values that follow come from patent publication US20240294650A1 (Alector, published 2024).

In test [1] the target is T1, recombinant murine MerTK extracellular domain (mouse, UniProt Q60805 19-497).
T1 construct: also called Mouse MerTK; murine MerTK ECD; not shown: polyHis or TEVS/Thrombin/murine IgG2a-Fc tag
T1 sequence: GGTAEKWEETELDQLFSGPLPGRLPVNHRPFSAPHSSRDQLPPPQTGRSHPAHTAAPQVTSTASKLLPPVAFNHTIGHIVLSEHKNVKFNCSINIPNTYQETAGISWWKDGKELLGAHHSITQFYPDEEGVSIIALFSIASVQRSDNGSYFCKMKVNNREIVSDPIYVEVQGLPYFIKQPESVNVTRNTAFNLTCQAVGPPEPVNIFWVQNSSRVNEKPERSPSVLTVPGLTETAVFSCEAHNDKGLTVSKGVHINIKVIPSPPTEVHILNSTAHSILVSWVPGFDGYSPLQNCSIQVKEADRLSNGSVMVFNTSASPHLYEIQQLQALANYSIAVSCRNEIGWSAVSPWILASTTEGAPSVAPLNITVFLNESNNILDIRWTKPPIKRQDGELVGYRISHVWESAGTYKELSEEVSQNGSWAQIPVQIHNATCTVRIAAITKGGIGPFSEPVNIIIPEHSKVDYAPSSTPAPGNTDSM
The test is described as follows: SPR Carterra LSA.

Test [2] deals with T2, recombinant cynomolgus MerTK extracellular domain (cynomolgus, UniProt Q12866 21-505 (human entry)).
T2 construct: also called cyno MerTK ECD; not shown: polyHis or TEVS/Thrombin/murine IgG2a-Fc tag
T2 chain: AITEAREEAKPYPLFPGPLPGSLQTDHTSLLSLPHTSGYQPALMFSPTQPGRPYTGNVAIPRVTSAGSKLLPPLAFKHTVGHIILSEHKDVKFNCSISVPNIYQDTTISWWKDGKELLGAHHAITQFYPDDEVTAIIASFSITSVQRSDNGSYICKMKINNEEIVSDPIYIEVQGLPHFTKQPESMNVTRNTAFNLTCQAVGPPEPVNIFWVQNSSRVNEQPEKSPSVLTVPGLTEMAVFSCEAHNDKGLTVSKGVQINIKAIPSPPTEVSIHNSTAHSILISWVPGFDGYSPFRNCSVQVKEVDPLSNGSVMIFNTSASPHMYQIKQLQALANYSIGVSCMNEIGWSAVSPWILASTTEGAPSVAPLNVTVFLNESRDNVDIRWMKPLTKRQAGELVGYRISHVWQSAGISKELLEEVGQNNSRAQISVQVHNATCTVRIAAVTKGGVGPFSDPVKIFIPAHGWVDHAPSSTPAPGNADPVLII
The test is described as follows: SPR Carterra LSA, Ab immobilised. Summed up: (§1)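 Surface plasmon resonance on a Carterra LSA measured affinity of immobilized antibodies for human, cynomolgus or mouse MerTK ectodomain diluted in HBS-TE with 0.5 mg/ml BSA. Analytes flowed over the full array, surfaces were regenerated with Protein A/G Elution Buffer plus 1M NaCl or 10 mM Glycine pH 2.5, and spots binding under 25 RU were discarded before kinetic fitting.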

In test [3] the target is T1, recombinant murine MerTK extracellular …. The test is described as follows: SPR Carterra LSA, Ab immobilised. Put shortly: as §1
For test [4], the target named is T3, His tag-conjugated recombinant ProS (human, UniProt P07225 42-676, limits assumed).
T3 construct: bought; also called Protein S; ProS1 (R&D systems, Cat #9489-PS-100)
T3 sequence (looked up): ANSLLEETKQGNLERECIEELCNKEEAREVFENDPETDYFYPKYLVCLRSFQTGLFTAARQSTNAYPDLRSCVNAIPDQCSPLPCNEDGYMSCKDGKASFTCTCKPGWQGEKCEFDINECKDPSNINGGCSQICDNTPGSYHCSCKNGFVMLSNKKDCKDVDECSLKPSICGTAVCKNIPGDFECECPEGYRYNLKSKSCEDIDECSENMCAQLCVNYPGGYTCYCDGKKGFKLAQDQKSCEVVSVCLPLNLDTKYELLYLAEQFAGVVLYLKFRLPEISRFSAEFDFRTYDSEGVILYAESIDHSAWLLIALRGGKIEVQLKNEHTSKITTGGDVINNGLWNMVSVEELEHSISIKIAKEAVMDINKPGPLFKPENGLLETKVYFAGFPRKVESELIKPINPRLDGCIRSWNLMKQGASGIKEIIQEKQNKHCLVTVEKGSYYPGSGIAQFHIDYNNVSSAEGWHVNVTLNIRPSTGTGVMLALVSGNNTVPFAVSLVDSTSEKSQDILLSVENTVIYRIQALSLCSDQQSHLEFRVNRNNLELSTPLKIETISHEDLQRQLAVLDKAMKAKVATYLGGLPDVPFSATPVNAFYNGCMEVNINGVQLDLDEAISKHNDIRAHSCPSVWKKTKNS
The test is described as follows: ELISA, captured Ab, ProS-His 10 ug/ml, no MerTK.

B1: MTK-228 (antibody, human IgG1, V domains shown)
VH: QDQLQQSGPELVKPGASVKISCKASGYSFTSYYIHWVKQRPGQGLEWVGWIFPGNGNTKYNERFKGKATLTADTSSSTAYMQLSSLTSEDSAVYYCARLGLIYALDYWGQGTSVTVSS
VL: DAVMTQTPLSLPVSLGDQASISCRSSQSLENSNGNTYLHWYLQKPGQSPQLLIYRVSNRFSGVLDRFSGSGSGTDFTLKISRVEAEDLGVYFCLQVTHVPFTFGSGTKLEIK
Turning to B1, the “Ratio of KD for Mouse vs Human MerTK” value in test [1] is 0.04 ratio. In addition, the Kd in test [2] came out at 46 nM; in test [3], 1.7 nM.

B2: MTK-218 (antibody, human IgG1, V domains shown)
VH: QVQLQQSGPELVKPGTSVKISCKASGYSFTSYYIHWVKQRPGQGLDWIGWIFPGNRNTQYNEKFKGKATLTADTSSSTAYMQLSSLTSEDSAVYYCARLGLIYALDYWGQGTSVTVSS
VL: DAVMTQTPLSLPVSLGDQASISCRSSQSLENSNGHTYLHWYLQKPGQSPQLLIYRVSNRFSGVQDRFSGSGSGTDFTLKISRVEAEDLGVYFCLQVTHVPFTFGSGTKLEIK
Turning to B2, in test [1], the “Ratio of KD for Mouse vs Human MerTK” value was determined as 0.1 ratio. Besides, the Kd is 85 nM in test [2] and 6.2 nM in test [3].

B3: MTK-226 (antibody, human IgG1, V domains shown)
VH: QVQLQQSGPELVKPGASVKISCKASGYSFTSYYIHWVKQRPGQGLEWIGWIFPGNGNTKYNENFRGKATLTADTSSSTAYMQLSSLTSEDSAVYYCARLGLIYALDYWGQGTSVTVSS
VL: DAVMTQTPLSLPVSLGDQASISCRSSQSLESSNGNTYLHWYLQKPGQSPQLLIYRVSNRFSGVLDRFSGSGSGTDFTLQISRVEAEDLGVYFCLQVTHVPFTFGSGTKLEIK
For B3, in test [1], the “Ratio of KD for Mouse vs Human MerTK” value was 0.05 ratio. For the same molecule, the dissociation constant Kd in test [2] is 47 nM; in test [3] it was 1.8 nM.

B4: MTK-231 (antibody, human IgG1, V domains shown)
VH: DVQLQESGPGLVKPSQSLSLTCSVTGYSITSGYYWNWIRQFPGNKLEWMGYISYDGTYNYHPSLKNRISITRDTSKNQFFLTLNSVTTEDTATFYCTRGGGYWGQGTSVTVSS
VL: DVVMTQTPLSLPVSLGDQASISCRSSQSLVHSDGNTYLHWYLQKPGQSPKLLIYKVSNRFSGVPDRFSGSGSGTDFTLKISRLEAEDLGIYFCSQTTHIPLTFGSGTKLEIK
For B4, the Kd in test [2] turned out to be 48 nM. Further, in test [4], the binding result is listed as “binds”.

B5: MTK-207 (antibody, human IgG1, V domains shown)
VH: QVQLKESGPGLVAPSQSLSITCTVSGISLTSYGVSWVRQPPGKGLEWLGIIWGDGSTNYHSALISRLSISKDNSKSQVFLKLNSLQTDDTATYYCAKGRYGNYEDWYFDVWGTGTTVTVSS
VL: DIQMTQSPASLSASVGETVTITCRASGNIHNYLAWYQQKQGKSPQLLVYNAKTLAAGVPSRFSGSGSGTQYSLKINSLQPEDFGSYYCQHFWSIPLTFGAGTKLELK
Consider B5, for which, in test [4], the binding result is listed as “binds”.

B6: MTK-214 (antibody, human IgG1, V domains shown)
VH: QVQLQQPGAELVKPGASVKVSCKASGYTFTNYWMHWMKQRPGQGLEWIGRIHPFDSDTNYNEKFTDKATLTVDKSSSTAYMQLSSLTSEDSAVYYCAIGTLIYWGQGTTLTASS
VL: DILLTQSPATLSVTPGETVSLSCRASQSIYKKLHWFQQRSHRSPRLLIKFASDSISGIPSRFTGSGSGTDYTLSINSVKPEDEAIYYCLQGYSTPLTFGAGTKLELK
For B6, the “Ratio of KD for Mouse vs Human MerTK” value in test [1] worked out at 32 ratio. Also, the dissociation constant (Kd) in test [3] worked out at 320 nM. The binding result in test [4] is recorded as “binds”.

B7: MTK-224 (antibody, human IgG1, V domains shown)
VH: QVQLQQPGAELVKPGASVKVSCKASGYTFTSYWMHWVKQRPGQGLEWIGRIHPFDSDTNYNQKFKGKATLTVDKSSSTAYMQLSSLTSEDSAVYYCSIAGFAYWGQGTLVTVSA
VL: DIVMTQSPATLSVTPGDRVSLSCRASQIISDYLNWYQQKSHESPRLLIKYASQSISGIPSRFSGSGSGSDFTLSINSVEPEDVGVYYCQNGHSFPLTFGAGTKLELK
For B7, in test [1], the “Ratio of KD for Mouse vs Human MerTK” value was 64.2 ratio. Besides, the dissociation constant Kd in test [3] was 430 nM. Further, the binding result in test [4] is “binds”.

B8: MTK-212 (antibody, human IgG1, V domains shown)
VH: QVQLQQSGPELVKPGASVKISCKASGYAFSSSWVNWVKQRPGKGLEWIGRIYPGDGDSNYNGNFKGKATLTADKSSNTAYLQLSSLTSEDSAVYFCARKSHFIYYTLDYWGQGTPVTVSS
VL: DIVMTQSHKFKSTSVGDRVSIACKASQDVGTSVAWYQQKPGKSPKLLIYWASSRHTGVPDRFTGSGSGTDFTLTISNVQSEDLTDYFCQQYSTYPYTFGGGTKLEIK
In the case of B8, in test [1], the “Ratio of KD for Mouse vs Human MerTK” value turned out to be 0.13 ratio. Besides, the equilibrium dissociation constant (Kd) in test [2] was determined as 1500 nM; in test [3] it was 11 nM.

B9: MTK-211 (antibody, human IgG1, V domains shown)
VH: QVQLQQSGAELMKPGASVKLSCKATGYTFTGYWIEWVKQRPGHGLEWIGEILPGSGGSNYNEKFKGKATFTADTSSNTAYIQLSSLTTEDSAIYCCARGEPSYFSDAGFAYWGQGTLVTVSA
VL: QIVLTQSPAVMSASPGEKVTMTCSASSSITYMHWYQQKPGTSPKRWIYDTSKLASGVPARFSGSGSGTSYFLTISSMEAEDVATYYCHQRSTYPYTFGGGTKLEIM
As to B9, the Kd in test [2] worked out at 1.4 nM. In test [4], the binding result is given as “binds”.

B10: MTK-213 (antibody, human IgG1, V domains shown)
VH: QVQLQQPGAELVKPGASVKMSCKASGYTFTSYWITWVKQRPGQGHEWIGEIYPGIGSTNYNEKFKSKATLTVDTSSRTAYMQLSSLTSEDSAVYFCARGAYTKYYFDYWGQGTTLTVSS
VL: DIVMTQSHKFMSTSVGDRVSITCKASQDVGDAVAWYQQKPGQTPKLLIYWASTRHTGVPDRFTGSGSGTDFTLTISNVQSEDLADYFCQQYSSYLMYTFGGGTKLEIK
On to B10, for which, in test [1], the “Ratio of KD for Mouse vs Human MerTK” value came to 0.08 ratio. In addition, the Kd in test [2] came out at 60 nM; in test [3], 4.8 nM. Also, the binding result in test [4] was “binds”.
